Source: the supplement of paper PMC10065799, “High-throughput profiling of sequence recognition by tyrosine kinases and SH2 domains using bacterial peptide display” (eLife, 2023)

Tests used:
[1] = system: AncSZ; assay: phosphorylation enrichment, bacterial display (enrichment ratio); higher = better substrate or ligand; peptides without Tyr show the background
[2] = target: EPHB1 (UniProt P54762); assay: as above
[3] = target: EPHB2 (UniProt P29323); assay: as above
[4] = target: FGFR1 (UniProt P11362); assay: as above
[5] = target: FGFR3 (UniProt P22607); assay: as above
[6] = system: Fer (mouse); assay: as above
[7] = target: Fes (UniProt P07332); assay: as above
[8] = target: Fyn (UniProt P06241); assay: as above
[9] = target: Hck (UniProt P08631); assay: as above
[10] = target: Jak2 (UniProt O60674); assay: as above
[11] = target: MERTK (UniProt Q12866); assay: as above
[12] = system: c-Abl (mouse); assay: as above
[13] = system: c-Src; assay: as above
[14] = target: Grb2 SH2 (UniProt P62993); assay: SH2 binding enrichment of the phosphorylated peptide, bacterial display (enrichment ratio); higher = better substrate or ligand; peptides without Tyr show the background
[15] = target: SHP2-C SH2; assay: as above
[16] = target: c-Src SH2; assay: as above
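Throughout, for SH2 binding enrichment of the phosphorylated peptide, bacterial display: peptide library displayed on the E. coli surface as eCPX fusions, selected cells deep-sequenced, score is each peptide's frequency after selection divided by its frequency in the input.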
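Throughout, for phosphorylation enrichment, bacterial display: 11-residue human phosphosite peptides and single-mutation variants displayed on the E. coli surface, counted by deep sequencing, each peptide's frequency after selection divided by its frequency in the unselected input library; frequency after pTyr selection over input frequency; kinase dosed for 20-30% of maximal phosphorylation in three min.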

MERTK, sequence (Q12866 whole entry, looked up): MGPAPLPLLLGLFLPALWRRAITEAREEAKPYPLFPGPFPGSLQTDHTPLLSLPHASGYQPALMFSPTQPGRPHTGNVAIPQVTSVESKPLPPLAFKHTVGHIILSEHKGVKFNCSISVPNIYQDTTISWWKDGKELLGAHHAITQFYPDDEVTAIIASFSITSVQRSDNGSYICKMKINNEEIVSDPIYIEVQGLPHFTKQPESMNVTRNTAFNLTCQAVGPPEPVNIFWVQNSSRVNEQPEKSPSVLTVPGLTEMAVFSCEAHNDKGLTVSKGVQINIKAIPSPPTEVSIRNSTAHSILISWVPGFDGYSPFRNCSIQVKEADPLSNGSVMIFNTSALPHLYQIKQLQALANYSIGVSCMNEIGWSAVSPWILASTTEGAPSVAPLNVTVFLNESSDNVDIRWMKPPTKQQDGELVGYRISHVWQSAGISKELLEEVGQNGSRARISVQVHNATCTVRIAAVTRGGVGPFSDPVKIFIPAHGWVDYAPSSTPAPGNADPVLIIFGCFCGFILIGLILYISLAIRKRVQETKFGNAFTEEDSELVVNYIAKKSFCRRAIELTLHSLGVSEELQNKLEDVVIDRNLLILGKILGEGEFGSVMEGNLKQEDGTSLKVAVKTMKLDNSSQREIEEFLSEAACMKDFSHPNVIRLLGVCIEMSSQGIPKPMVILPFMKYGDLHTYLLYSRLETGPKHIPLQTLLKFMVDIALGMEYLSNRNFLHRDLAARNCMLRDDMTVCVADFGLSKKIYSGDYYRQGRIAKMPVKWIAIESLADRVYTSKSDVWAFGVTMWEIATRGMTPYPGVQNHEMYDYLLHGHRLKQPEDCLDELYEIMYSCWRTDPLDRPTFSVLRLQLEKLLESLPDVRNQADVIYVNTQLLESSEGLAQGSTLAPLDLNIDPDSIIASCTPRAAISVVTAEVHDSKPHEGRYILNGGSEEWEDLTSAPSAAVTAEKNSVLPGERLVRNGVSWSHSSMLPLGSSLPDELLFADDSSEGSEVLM
EPHB2, sequence (P29323 whole entry, looked up): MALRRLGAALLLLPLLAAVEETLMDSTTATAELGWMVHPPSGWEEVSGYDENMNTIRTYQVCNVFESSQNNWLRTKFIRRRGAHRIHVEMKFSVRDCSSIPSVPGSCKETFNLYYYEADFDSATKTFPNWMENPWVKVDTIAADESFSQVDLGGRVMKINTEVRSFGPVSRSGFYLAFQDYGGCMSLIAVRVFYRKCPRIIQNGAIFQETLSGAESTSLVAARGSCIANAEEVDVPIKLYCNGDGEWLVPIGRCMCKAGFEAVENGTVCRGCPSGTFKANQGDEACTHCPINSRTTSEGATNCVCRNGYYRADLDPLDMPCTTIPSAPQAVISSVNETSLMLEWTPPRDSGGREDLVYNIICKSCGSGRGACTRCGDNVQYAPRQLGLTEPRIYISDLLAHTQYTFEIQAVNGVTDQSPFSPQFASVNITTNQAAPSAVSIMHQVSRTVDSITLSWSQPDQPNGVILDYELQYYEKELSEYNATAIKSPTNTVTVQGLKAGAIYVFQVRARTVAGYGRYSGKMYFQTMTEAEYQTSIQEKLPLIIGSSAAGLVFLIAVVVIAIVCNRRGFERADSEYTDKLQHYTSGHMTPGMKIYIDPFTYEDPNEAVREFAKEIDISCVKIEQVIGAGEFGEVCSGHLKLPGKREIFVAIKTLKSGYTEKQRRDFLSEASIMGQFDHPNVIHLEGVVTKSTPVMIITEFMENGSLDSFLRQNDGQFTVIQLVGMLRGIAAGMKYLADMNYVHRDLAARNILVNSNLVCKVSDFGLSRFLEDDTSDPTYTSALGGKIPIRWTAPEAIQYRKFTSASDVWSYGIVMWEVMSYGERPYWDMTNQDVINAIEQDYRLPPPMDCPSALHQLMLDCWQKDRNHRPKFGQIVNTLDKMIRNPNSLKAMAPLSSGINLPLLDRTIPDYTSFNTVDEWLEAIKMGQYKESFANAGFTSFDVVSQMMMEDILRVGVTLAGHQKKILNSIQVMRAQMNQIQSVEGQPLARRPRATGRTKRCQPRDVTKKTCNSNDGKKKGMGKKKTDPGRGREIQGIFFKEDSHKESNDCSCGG
Fes, sequence (P07332 whole entry, looked up): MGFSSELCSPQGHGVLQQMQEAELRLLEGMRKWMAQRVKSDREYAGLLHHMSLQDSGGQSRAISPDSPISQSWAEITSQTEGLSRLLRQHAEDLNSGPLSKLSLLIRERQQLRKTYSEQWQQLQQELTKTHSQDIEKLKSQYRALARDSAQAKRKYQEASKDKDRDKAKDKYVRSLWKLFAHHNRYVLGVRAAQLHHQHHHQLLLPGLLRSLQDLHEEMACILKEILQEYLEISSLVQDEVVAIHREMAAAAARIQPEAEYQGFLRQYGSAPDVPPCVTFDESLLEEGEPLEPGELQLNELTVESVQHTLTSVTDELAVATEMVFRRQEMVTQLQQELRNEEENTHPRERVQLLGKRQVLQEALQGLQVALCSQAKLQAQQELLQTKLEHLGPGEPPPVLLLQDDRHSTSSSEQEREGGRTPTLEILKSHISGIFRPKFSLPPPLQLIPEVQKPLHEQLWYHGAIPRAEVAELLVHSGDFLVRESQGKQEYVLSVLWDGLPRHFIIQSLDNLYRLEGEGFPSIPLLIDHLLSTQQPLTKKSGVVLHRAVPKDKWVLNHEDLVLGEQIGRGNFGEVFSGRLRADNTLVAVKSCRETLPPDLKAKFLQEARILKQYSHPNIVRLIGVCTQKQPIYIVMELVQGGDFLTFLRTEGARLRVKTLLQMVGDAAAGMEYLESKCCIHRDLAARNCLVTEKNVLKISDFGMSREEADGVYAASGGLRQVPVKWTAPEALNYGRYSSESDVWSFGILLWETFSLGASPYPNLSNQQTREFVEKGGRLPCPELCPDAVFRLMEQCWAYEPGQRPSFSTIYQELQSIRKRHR
EPHB1, sequence (P54762 whole entry, looked up): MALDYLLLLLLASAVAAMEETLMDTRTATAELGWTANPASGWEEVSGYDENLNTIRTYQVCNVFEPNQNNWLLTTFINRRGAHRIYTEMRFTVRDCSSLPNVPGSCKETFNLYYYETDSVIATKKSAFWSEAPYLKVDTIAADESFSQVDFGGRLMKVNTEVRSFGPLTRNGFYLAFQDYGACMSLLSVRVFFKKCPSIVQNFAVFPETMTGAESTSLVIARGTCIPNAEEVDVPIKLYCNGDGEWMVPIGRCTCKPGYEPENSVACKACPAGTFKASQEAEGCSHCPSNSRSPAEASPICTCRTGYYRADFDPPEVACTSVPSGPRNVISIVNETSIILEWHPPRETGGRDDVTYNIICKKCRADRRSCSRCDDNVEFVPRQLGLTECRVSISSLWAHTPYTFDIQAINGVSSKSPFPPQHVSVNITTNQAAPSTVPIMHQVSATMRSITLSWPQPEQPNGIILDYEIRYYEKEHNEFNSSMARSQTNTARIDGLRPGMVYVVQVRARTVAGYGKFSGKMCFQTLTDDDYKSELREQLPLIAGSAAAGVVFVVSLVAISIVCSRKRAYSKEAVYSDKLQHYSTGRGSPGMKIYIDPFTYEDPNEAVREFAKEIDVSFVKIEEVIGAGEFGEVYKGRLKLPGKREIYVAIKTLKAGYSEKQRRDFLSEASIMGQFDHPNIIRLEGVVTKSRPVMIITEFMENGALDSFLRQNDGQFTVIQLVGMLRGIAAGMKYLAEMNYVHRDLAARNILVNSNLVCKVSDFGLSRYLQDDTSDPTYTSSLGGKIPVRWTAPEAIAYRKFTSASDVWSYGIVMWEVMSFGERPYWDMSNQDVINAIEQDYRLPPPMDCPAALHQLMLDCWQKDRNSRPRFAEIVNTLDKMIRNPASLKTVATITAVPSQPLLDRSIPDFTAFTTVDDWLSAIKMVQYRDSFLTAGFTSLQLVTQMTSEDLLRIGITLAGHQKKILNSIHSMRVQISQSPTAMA
FGFR1, sequence (P11362 whole entry, looked up): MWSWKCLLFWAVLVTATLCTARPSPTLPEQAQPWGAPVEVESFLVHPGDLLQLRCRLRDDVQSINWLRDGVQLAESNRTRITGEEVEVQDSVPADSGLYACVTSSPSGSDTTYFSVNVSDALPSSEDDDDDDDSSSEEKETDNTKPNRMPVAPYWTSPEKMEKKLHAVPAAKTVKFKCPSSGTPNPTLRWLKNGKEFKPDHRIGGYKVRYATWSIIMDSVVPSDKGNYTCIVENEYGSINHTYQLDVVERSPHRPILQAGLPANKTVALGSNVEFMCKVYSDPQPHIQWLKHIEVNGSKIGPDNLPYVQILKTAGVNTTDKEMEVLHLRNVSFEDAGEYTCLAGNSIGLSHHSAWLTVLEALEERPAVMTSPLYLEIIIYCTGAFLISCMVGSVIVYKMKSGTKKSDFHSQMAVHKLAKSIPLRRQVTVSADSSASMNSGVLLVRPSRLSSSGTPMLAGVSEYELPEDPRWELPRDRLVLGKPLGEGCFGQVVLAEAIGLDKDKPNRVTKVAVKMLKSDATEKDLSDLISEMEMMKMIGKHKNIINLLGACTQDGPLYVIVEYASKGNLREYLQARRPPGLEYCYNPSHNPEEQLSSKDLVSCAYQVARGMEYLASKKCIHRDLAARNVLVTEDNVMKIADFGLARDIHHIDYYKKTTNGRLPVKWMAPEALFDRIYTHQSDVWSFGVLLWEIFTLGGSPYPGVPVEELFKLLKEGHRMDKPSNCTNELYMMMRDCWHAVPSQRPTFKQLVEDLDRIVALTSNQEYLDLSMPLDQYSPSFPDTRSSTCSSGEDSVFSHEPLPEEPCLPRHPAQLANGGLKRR

Row | Sequence | SH2 binding enrichment [14] | SH2 binding enrichment [15] | SH2 binding enrichment [16] | phosphorylation enrichment [1] | phosphorylation enrichment [2] | phosphorylation enrichment [3] | phosphorylation enrichment [4] | phosphorylation enrichment [5] | phosphorylation enrichment [6] | phosphorylation enrichment [7] | phosphorylation enrichment [8] | phosphorylation enrichment [9] | phosphorylation enrichment [10] | phosphorylation enrichment [11] | phosphorylation enrichment [12] | phosphorylation enrichment [13]
1 | GLRYGYGVLGG [KRTAP20-2_Y15] | 0.933 | 0.769 | 0.723 | 0.596 | 0.407 | 0.398 | 0.447 | 0.497 | 0.432 | 0.605 | 0.495 | 0.443 | 0.586 | 0.413 | 0.487 | 0.9
2 | GRVLGYGAFRK [FLT4_Y853_G857R] | 0.671 | 0.733 | 0.549 | 0.634 | 0.44 | 0.432 | 0.477 | 0.495 | 0.406 | 0.586 | 0.517 | 0.486 | 0.539 | 0.482 | 0.644 | 0.52
3 | GSRGKYFSGFR [ATM_Y332_S333F] | 0.963 | 0.833 | 0.544 | 0.547 | 0.425 | 0.399 | 0.415 | 0.412 | 0.325 | 0.736 | 0.386 | 0.351 | 0.885 | 0.481 | 0.657 | 0.616
4 | GVLKEYGEKVL [CPS1_Y529_V531E] | 0.921 | 0.767 | 0.427 | 0.742 | 0.42 | 0.474 | 0.419 | 0.466 | 0.405 | 0.719 | 0.425 | 0.422 | 0.573 | 0.415 | 0.648 | 0.396
5 | GVMLLYYGRYN [ADGRD1_Y85_T82M] | 1.17 | 0.921 | 0.96 | 1.53 | 0.616 | 0.761 | 0.556 | 0.6 | 0.515 | 1.24 | 1.24 | 1.21 | 1.34 | 0.416 | 0.594 | 2.23
6 | GVTLLYFGRDN [ADGRD1_Y85_Y89D_YF] | 1.63 | 1.19 | 1.16 | 0.887 | 0.633 | 0.424 | 0.488 | 0.737 | 0.481 | 1.04 | 0.353 | 0.516 | 0.937 | 0.321 | 0.643 | 0.398
7 | GVYSRHFTTYD [CLCA1_Y661_Y661H] | 0.713 | 0.714 | 0.477 | 0.823 | 0.495 | 0.473 | 0.389 | 0.508 | 0.642 | 0.657 | 0.648 | 1.31 | 0.507 | 0.569 | 0.359 | 0.768
8 | GYDHSYYFIAT [ESD_Y262] | 0.702 | 0.727 | 0.871 | 2.05 | 1.95 | 1.24 | 11.1 | 9.89 | 1.1 | 1.22 | 1.41 | 2.02 | 6.79 | 4.8 | 0.759 | 1.57

Continued, in another order:

Row | SH2 binding enrichment [14] | SH2 binding enrichment [15] | SH2 binding enrichment [16] | Sequence | phosphorylation enrichment [1] | phosphorylation enrichment [2] | phosphorylation enrichment [3] | phosphorylation enrichment [4] | phosphorylation enrichment [5] | phosphorylation enrichment [6] | phosphorylation enrichment [7] | phosphorylation enrichment [8] | phosphorylation enrichment [9] | phosphorylation enrichment [10] | phosphorylation enrichment [11] | phosphorylation enrichment [12] | phosphorylation enrichment [13]
9 | 1.03 | 3.06 | 1.07 | GLSAPYVKIHL [SYT2_Y309_D307A] | 0.747 | 0.426 | 0.423 | 0.436 | 0.714 | 0.527 | 0.785 | 0.337 | 0.443 | 0.994 | 0.43 | 0.509 | 0.383
10 | 0.873 | 1.07 | 0.836 | GLSDPYVKIHL [SYT2_Y309] | 0.693 | 0.425 | 0.721 | 0.546 | 0.589 | 0.488 | 0.993 | 0.458 | 0.406 | 0.787 | 0.397 | 0.556 | 0.376
11 | 0.741 | 11.5 | 0.649 | GLTSTYVGIRK [ROBO1_Y932_A933V] | 0.756 | 0.471 | 0.506 | 0.46 | 0.489 | 0.374 | 0.775 | 0.528 | 1.67 | 0.598 | 0.463 | 0.565 | 0.562
12 | 1.79 | 1.4 | 1.43 | GRTNICKNKKD [SLC26A3_Y520_Y520C] | 0.631 | 0.462 | 0.447 | 0.471 | 0.911 | 0.448 | 0.973 | 0.331 | 0.482 | 1.16 | 0.366 | 1.39 | 0.437
13 | 0.777 | 0.563 | 0.485 | GSERRYTREGG [PTPRN2_Y139_S140T] | 0.448 | 0.345 | 0.347 | 0.458 | 0.407 | 0.351 | 0.583 | 0.319 | 0.415 | 0.463 | 0.382 | 0.489 | 0.482
14 | 0.829 | 0.937 | 0.53 | GSIQQYTFKQE [PRG4_Y1271_I1272T_YF] | 0.703 | 0.484 | 0.451 | 0.369 | 0.573 | 0.427 | 0.785 | 0.345 | 0.347 | 0.641 | 0.322 | 0.728 | 0.356
15 | 0.705 | 0.578 | 0.476 | GVRLFYRVRES [RB1_Y454_M457R_YF] | 1.25 | 0.471 | 0.529 | 0.513 | 0.65 | 0.461 | 1.16 | 0.417 | 0.375 | 1.05 | 0.383 | 0.976 | 0.349
16 | 0.939 | 0.778 | 3.86 | GYYDLYGGEKF [PTPN11_Y66_D61G] | 1.3 | 3.27 | 9.35 | 10.9 | 8.65 | 3.13 | 0.931 | 7.27 | 6.7 | 3.15 | 6.61 | 0.68 | 4.54
